Measurements taken from publication PMC10499537 (Biomedicine & pharmacotherapy = Biomedecine & …, 2023).

T1: ADAM10 D+C domains construct (species not named for the experiment) (Bos taurus, assumed)
T1 chain: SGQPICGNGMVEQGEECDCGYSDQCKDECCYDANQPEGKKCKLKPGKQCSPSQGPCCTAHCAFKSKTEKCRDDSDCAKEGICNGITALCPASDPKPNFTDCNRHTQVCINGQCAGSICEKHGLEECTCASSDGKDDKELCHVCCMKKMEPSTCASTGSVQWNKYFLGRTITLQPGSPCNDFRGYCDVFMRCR

B1: fully human anti-ADAM10 monoclonal antibody 1H5 (IgG) (antibody, V domains shown)
VH: QVQLVESGGGLVKPGGSLRLSCAASGFTFSDYYMSWIRQAPGKGLEWVSYISSSGSTIYYADSVKGRFTISRDNAKNSLYLQMNSLRAEDTAVYYCARDFYDSKIFDYWGQGTLVTVSS
VL: DIQMTQSPSSLSASVGDRVTITCRASQSISSYLNWYQQKPGKAPKLLIYAASSLQSGVPSRFSGSGSGTDFTLTISSLQPEDVGVYYCMEGLKTPFTFGPGTKLEIK
B2: murine anti-ADAM10 monoclonal antibody 8C7 (IgG) (antibody, V domains shown)
VH: QVQLEESGAELARPGSSVKLSCKASGYTFTNYWLQWVKQRTGQGLEWIGAIYPRDGDAKYSQKFKDKASLTVNESSSTAYMHLSALASEDSAVYYCARANYGLYYAMDRWGQGTSVTVSS
VL: DIFLTQSPANMSVSPGERVSFSCRASQNIGTNIHWYQQRTNGSPRLLIKYASESISGIPSRFSGSGSGTDFILSINTVESEDIAVYFCQQSNRWPFTFGSGTKLEVI

Columns and labels:
[1] = target: human ADAM19 D+C construct (438-646) (Homo sapiens, UniProt Q9H013); assay: ELISA
[2] = target: human ADAM17 D+C (482-648) (Homo sapiens, UniProt P78536); assay: ELISA
[3] = target: full recombinant ADAM10 ECD (species not named for the experiment) (Bos taurus, assumed, UniProt Q10741); assay: BLI
[4] = target: T1, ADAM10 D+C domains construct (species …); assay: ELISA

Chain of human ADAM17 D+C (482-648) (P78536 482-648): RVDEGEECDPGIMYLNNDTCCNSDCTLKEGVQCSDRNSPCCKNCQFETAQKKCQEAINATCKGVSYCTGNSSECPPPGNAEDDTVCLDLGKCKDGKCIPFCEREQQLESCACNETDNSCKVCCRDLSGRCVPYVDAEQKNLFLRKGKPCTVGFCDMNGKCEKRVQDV
Chain of full recombinant ADAM10 ECD (species not named for the experiment) (Q10741 20-672): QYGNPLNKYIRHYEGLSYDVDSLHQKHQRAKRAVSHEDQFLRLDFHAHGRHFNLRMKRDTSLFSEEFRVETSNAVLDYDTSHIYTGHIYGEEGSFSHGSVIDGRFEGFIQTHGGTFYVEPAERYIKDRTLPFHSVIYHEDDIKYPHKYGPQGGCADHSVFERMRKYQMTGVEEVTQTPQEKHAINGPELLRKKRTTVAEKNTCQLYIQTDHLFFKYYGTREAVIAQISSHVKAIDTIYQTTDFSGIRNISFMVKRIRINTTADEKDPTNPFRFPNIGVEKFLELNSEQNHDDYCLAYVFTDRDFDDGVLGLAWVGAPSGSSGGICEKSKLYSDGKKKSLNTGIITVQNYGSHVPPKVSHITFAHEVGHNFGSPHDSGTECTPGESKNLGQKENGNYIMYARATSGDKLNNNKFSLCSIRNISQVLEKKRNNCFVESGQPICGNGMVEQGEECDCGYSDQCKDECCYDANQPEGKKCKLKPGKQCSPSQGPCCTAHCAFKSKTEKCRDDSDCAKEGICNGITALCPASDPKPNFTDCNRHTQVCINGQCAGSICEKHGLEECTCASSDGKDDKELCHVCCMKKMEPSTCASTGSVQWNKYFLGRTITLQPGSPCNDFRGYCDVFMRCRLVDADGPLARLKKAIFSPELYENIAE
Chain of human ADAM19 D+C construct (438-646) (Q9H013 438-646): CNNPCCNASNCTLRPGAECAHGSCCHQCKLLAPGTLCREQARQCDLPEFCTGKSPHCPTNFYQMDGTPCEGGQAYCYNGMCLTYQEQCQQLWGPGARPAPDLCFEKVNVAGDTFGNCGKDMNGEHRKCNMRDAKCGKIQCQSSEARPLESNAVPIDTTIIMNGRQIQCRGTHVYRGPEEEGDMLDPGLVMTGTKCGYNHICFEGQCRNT

Binder	binding result [1]	binding result [2]	Kd [3] [nM]	binding result [4]
B1	no binding	no binding	~200	–
B2	–	–	–	binds
